These results are taken from US20200207859A1 (priority 2017, published 2020).

In data set [1] the test system is SUP-B15 (ALL). Description: Cell killing assay (cell proliferation, Cell Titer-Glo). The format is cell-based. Particulars: 72 hrs. The method, then:
Cytotoxicity effects of the free drug linkers and conjugates were measured with a cell proliferation assay. A total of 12500 cells in a volume of 25 μl were seeded in a 384-well flat bottom white polystyrene plate on the day of assay. Free drug-linkers and conjugates were formulated at 2× starting concentration (1000 nM for free drug linkers and 100 nM for ADCs) in RPMI medium and filtered through MultiScreen HTS 96-Well Filter Plates (Millipore). Filter sterilized samples were serial diluted (1:3) under sterile conditions and added into treatment wells. Plates were cultured at 37° C. in a CO2 incubator for 72 hrs. For cell viability measurement, 30 μl of Cell Titer-Glo® reagent (Promega Corp.) was added into each well, and plates processed as per product instructions. Relative luminescence was measured on an ENVISION® plate reader (Perkin-Elmer; Waltham, Mass.). Relative luminescence readings were converted to % viability using untreated cells as controls. Data was fitted with non-linear regression analysis, using log(inhibitor) vs. response, variable slope, 4 parameter fit equation using GraphPad Prism. Data was expressed as % relative cell viability vs. dose of free drug-linker or conjugate in nM.

Data set [2] concerns MM.1S multiple myeloma cells. Description: Disseminated MM.1S multiple myeloma model. Type of data set: in vivo, mouse. Particulars: NSG mice; for survival: MM.1S i.v., day 129 post inoculation; for tumor burden: hCD138+ myeloma cells in the bone marrow / hCD138+ cells in the bone marrow: MM.1S; for tumor burden: hCD138+ myeloma cells in the bone marrow: day 32; for hCD138+ cells in the bone marrow: day 129. How it is done: Female NOD SCID gamma (NSG) mice 8 weeks of age were inoculated with multiple myeloma MM.1S cells into the tail vein. Randomization by body weight and start of treatment was initiated 11 days post tumor inoculation. Treatment groups are outlined in Table 5. Test articles were formulated in 10 mM citrate, pH 6.0, 10% sucrose and diluted in PBS for administration. […] For each group, a subset of animals was used for bone marrow harvest and analysis (n=3) and the remaining animals (n=5) were monitored for survival. Survival endpoint was characterized by >20% body weight loss and clinical signs including lethargy, hind limb paralysis or moribundity. On day 32 (3 weeks after start of treatment), 3 animals from each group were randomly chosen to be euthanized for bone marrow harvest (pooled from tibia and femur) for flow cytometry. On day 129 (˜4 months after start of treatment), all surviving animals were euthanized and bone marrow was harvested (pooled from tibia and femur) for flow cytometry.
Body weights were monitored at least twice per week for up to 129 days. All graphs are presented as mean±standard error of the mean (SEM) versus days post-treatment start.
Percent body weight change (BWC) is calculated relative to weight on the day of treatment. Substantial toxicity was defined as a >20% decrease in animal weight, at which point affected animals are euthanized.
Bone marrow cells from mouse femur and tibia were pooled and assessed for human CD138 expression using the Alexa Fluor 647 mouse anti-human CD138 clone MI15 (BD Biosciences #562097) according to the manufacturer's protocol. CD138 is a specific surface antigen for MM and plasma cells in the bone marrow (Chilosi, M. et al. (1999), supra). Direct immunofluorescence flow cytometric analysis was performed using an LSRII flow cytometer and FACS Diva Software. Data was analyzed using Flowjo (Tree Star, Inc., Ashland, Oreg.).
Human CD138+ cells in the bone marrow on day 32 was analyzed using one-way analysis of variance (ANOVA) with a Dunnett's adjustment at 0.05 significance level. Data from MM.1 s positive control were excluded from analysis. A probability of less than 5% (p<0.05) was considered as significant.

Data set [3] has as its system SU-DHL-6 NHL tumors. In words: Subcutaneous SU-DHL-6 non-Hodgkin's lymphoma model. The format is in vivo, mouse. Particulars: CB17 SCID mice, s.c. SU-DHL-6, 10 mg/kg q7dx3 IV. How it is done:
Female CB17 SCID mice 9 weeks of age were anesthetized with isoflurane and implanted subcutaneously into the right flank with a 1:1 mixture of SU-DHL-6 cells and matrigel. Randomization, enrollment into treatment groups, and start of treatment was initiated approximately 14 days post implantation. Treatment groups are outlined in Table 6. All test articles were formulated in 10 mM citrate pH 6.0, 9% sucrose and diluted in PBS. Body weight and tumor size were monitored twice per week until mean of control treated tumors were >1000 mm^3 or end of study. Animal body weights included the tumor weight. Percent body weight change (BWC) is calculated relative to weight on the day of treatment. No samples were collected at the end of study.
Tumor size on day 18 post-tumor implantation (last day control animals were on study) was analyzed using a one-way analysis of variance (ANOVA) with Dunnett's multiple comparison test. A probability of less than 5% (p<0.05) was considered as significant.

B1: Conjugate A: anti-CD74 IgG with pAMF at heavy chain EU position 404 conjugated to DBCO-PEG4-maytansine (conjugate)
VH: QVQLVESGGGVVQPGRSLRLSCAASGFNFSDYGMHWVRQAPGKGLEWVAVIWYDGSISYYADSVKGRFTISRDNSKNTLYLQMNSLRAEDTAVYYCARGGTVEHGAVYGTDVWGQGTTVTVSS
VL: DIQMTQSPSSVSASVGDRVTITCRASQGIGSWLAWYQQKPGKAPKLLIYAADRLQSGVPSRFSGSGSGTDFTLTISSLQPEDFATYYCQQYHTYPLTFGGGTKVEIK
modifications: non-natural residues
Regarding B1, the “Cell Killing Activity Span” value in data set [1] is on record as 64%. Also, the “Cell Killing Activity Span” value in data set [1] (listed as A) was 65%. Besides, in data set [2] (3 mg/kg q7dx3 IV), the survival stood at 100%, the “tumor burden: hCD138+ myeloma cells in the bone marrow” value was “significantly reduced tumor burden” and the “hCD138+ cells in the bone marrow” value is “no hCD138+ cells were detected”. In data set [2] (10 mg/kg q7dx3 IV), the survival was determined as 100%, the “tumor burden: hCD138+ myeloma cells in the bone marrow” value was “significantly reduced tumor burden” and the “hCD138+ cells in the bone marrow” value is recorded as “no hCD138+ cells were detected”. Also, in data set [3], the “Average final tumor size on day 18” value turned out to be 291 mm^3 and the “tolerability (effects on animal body weights)” value is on record as “well tolerated”. Also, the “tumor growth inhibition compared to control” value in data set [3] (day 18) is about 80%.
